Test results reported in CN115521375A (INST PASTEUR SHANGHAI CAS, dated 2022).

What was measured:
[1] = target: SARS-CoV-2原型株(Wt)假病毒的S蛋白 (SARS-CoV-2, UniProt P0DTC2 14-1273); test: cell-based or functional assay
[2] = target: T1, SARS-CoV-2原型株RBD蛋白 (SARS-CoV-2, UniProt P0DTC2 320-550); test: BLI, prototype RBD on the sensor, antibody in solution
[3] = target: T1, SARS-CoV-2原型株RBD蛋白; test: ELISA, coated antigen
[4] = target: T2, SARS-CoV-2原型株NTD蛋白 (SARS-CoV-2, UniProt P0DTC2 16-294); test: ELISA, coated antigen
T2 construct: range 16-294

Row | Binder | 半数抑制浓度(IC50), 假病毒中和试验 [1] [mg/L] | Kd [2] [pM] | binding result [3] | binding result [4] | 中和IC50, 假病毒中和试验 [1] [µg/mL]
1 | 单抗5G2 (antibody, also called 抗体5G2) heavy: EVLLQQSGPELVKPGASVKIPCKASGYTFTDYNMDWVKQSHGKSLEWIGDINPNSGFIIYNQKFKGKASLTVDKSSSTAYMELRSLTSEDTAVYYCAREGYGNNFDYWGQGTTLSVSSAKTTPPSVYPLAPGCGDTTGSSVTLGCLVKGYFPESVTVTWNSGSLSSSVHTFPALLQSGLYTMSSSVTVPSSTWPSQTVTCSVAHPASSTTVDKKLEPSGPISTINPCPPCKECHKCPAPNLEGGPSVFIFPPNIKDVLMISLTPKVTCVVVDVSEDDPDVQISWFVNNVEVHTAQTQTHREDYNSTIRVVSTLPIQHQDWMSGKEFKCKVNNKDLPSPIERTISKIKGLVRAPQVYILPPPAEQLSRKDVSLTCLVVGFNPGDISVEWTSNGHTEENYKDTAPVLDSDGSYFIYSKLNMKTSKWEKTDSFSCNVRHEGLKNYYLKKTISRSPGK light: DILLTQSPTILSVSPGERVSFSCRASQSIGTSIHWYQQRTKGSPRLLIKYASESISGIPSRFSGSGSGTDFTLSINSVESEDIGDYYCQQSYSWPTTFGAGTKLELK | 0.293 | < 1 |  |  | 
2 | 单抗3H3 (antibody, V domains shown, also called 抗体3H3) VH: QVQLQQPGAELVRPGASVKLSCKASGYSFTRFWMNWVKQRPGQGLEWIGMIHPSDSETRLNQKFKDKATLTVDKSSTTAYMQLSSPTSEDSAVYYCARKDYDYDAWFAYWGQGTLVTVSA VL: DIVLTQSPASLAVSLGQRATISCRASKSVSASVYSYMHWYQQKPGQPPKLLIYLASSLESGVPARFSGSGSGTDFTLNIHPVEEEDAATYYCHHSRELPPAFGGGTKLEIKR |  |  | no binding | no binding | 0.083
